From IntAct's records for PubMed 21763699

B1: Peripheral plasma membrane protein CASK (Homo sapiens), O14936 (parent)
chain: MADDDVLFEDVYELCEVIGKGPFSVVRRCINRETGQQFAVKIVDVAKFTSSPGLSTEDLKREASICHMLKHPHIVELLETYSSDGMLYMVFEFMDGADLCFEIVKRADAGFVYSEAVASHYMRQILEALRYCHDNNIIHRDVKPHCVLLASKENSAPVKLGGFGVAIQLGESGLVAGGRVGTPHFMAPEVVKREPYGKPVDVWGCGVILFILLSGCLPFYGTKERLFEGIIKGKYKMNPRQWSHISESAKDLVRRMLMLDPAERITVYEALNHPWLKERDRYAYKIHLPETVEQLRKFNARRKLKGAVLAAVSSHKFNSFYGDPPEELPDFSEDPTSSGLLAAERAVSQVLDSLEEIHALTDCSEKDLDFLHSVFQDQHLHTLLDLYDKINTKSSPQIRNPPSDAVQRAKEVLEEISCYPENNDAKELKRILTQPHFMALLQTHDVVAHEVYSDEALRVTPPPTSPYLNGDSPESANGDMDMENVTRVRLVQFQKNTDEPMGITLKMNELNHCIVARIMHGGMIHRQGTLHVGDEIREINGISVANQTVEQLQKMLREMRGSITFKIVPSYRTQSSSCERDSPSTSRQSPANGHSSTNNSVSDLPSTTQPKGRQIYVRAQFEYDPAKDDLIPCKEAGIRFRVGDIIQIISKDDHNWWQGKLENSKNGTAGLIPSPELQEWRVACIAMEKTKQEQQASCTWFGKKKKQYKDKYLAKHNAVFDQLDLVTYEEVVKLPAFKRKTLVLLGAHGVGRRHIKNTLITKHPDRFAYPIPHTTRPPKKDEENGKNYYFVSHDQMMQDISNNEYLEYGSHEDAMYGTKLETIRKIHEQGLIAILDVEPQALKVLRTAEFAPFVVFIAAPTITPGLNEDESLQRLQKESDILQRTYAHYFDLTIINNEIDETIRHLEEAVELVCTAPQWVPVSWVY
B2: Peripheral plasma membrane protein CASK (Homo sapiens), O14936 (parent)
chain: B1 chain
partner: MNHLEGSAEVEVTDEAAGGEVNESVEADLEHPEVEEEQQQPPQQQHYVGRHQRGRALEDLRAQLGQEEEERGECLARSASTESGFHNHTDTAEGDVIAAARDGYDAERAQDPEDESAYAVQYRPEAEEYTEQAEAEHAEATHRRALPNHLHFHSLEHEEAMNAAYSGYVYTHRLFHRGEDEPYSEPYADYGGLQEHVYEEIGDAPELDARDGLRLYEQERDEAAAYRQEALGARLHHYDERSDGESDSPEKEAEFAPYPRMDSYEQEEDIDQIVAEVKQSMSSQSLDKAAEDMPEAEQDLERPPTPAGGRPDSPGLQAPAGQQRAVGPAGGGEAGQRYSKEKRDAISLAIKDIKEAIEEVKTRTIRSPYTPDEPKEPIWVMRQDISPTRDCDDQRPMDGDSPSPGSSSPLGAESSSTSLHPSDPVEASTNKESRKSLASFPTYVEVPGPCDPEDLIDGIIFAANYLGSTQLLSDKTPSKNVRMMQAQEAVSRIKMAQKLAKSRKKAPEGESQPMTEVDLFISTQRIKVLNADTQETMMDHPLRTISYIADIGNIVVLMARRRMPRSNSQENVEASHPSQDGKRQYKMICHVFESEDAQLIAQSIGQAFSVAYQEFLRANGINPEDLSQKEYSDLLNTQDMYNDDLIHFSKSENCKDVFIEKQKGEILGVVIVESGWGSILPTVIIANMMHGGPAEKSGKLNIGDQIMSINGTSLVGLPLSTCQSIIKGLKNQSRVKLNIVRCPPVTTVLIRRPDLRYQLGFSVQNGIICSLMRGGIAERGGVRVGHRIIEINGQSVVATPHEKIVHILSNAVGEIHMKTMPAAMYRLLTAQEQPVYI
B3: Caskin-1 (Homo sapiens), Q8WXD9 (parent)
chain: MGKEQELVQAVKAEDVGTAQRLLQRPRPGKAKLLGSTKKINVNFQDPDGFSALHHAALNGNTELISLLLEAQAAVDIKDNKGMRPLHYAAWQGRKEPMKLVLKAGSAVNIPSDEGHIPLHLAAQHGHYDVSEMLLQHQSNPCMVDNSGKTPLDLACEFGRVGVVQLLLSSNMCAALLEPRPGDATDPNGTSPLHLAAKNGHIDIIRLLLQAGIDINRQTKSGTALHEAALCGKTEVVRLLLDSGINAHVRNTYSQTALDIVHQFTTSQASREIKQLLREASAALQVRATKDYCNNYDLTSLNVKAGDIITVLEQHPDGRWKGCIHDNRTGNDRVGYFPSSLGEAIVKRAGSRAGTEPSLPQGSSSSGPSAPPEEIWVLRKPFAGGDRSGSISGMAGGRGSGGHALHAGSEGVKLLATVLSQKSVSESGPGDSPAKPPEGSAGVARSQPPVAHAGQVYGEQPPKKLEPASEGKSSEAVSQWLTAFQLQLYAPNFISAGYDLPTISRMTPEDLTAIGVTKPGHRKKIAAEISGLSIPDWLPEHKPANLAVWLSMIGLAQYYKVLVDNGYENIDFITDITWEDLQEIGITKLGHQKKLMLAVRKLAELQKAEYAKYEGGPLRRKAPQSLEVMAIESPPPPEPTPADCQSPKMTTFQDSELSDELQAAMTGPAEVGPTTEKPSSHLPPTPRATTRQDSSLGGRARHMSSSQELLGDGPPGPSSPMSRSQEYLLDEGPAPGTPPREARPGRHGHSIKRASVPPVPGKPRQVLPPGTSHFTPPQTPTKTRPGSPQALGGPHGPAPATAKVKPTPQLLPPTERPMSPRSLPQSPTHRGFAYVLPQPVEGEVGPAAPGPAPPPVPTAVPTLCLPPEADAEPGRPKKRAHSLNRYAASDSEPERDELLVPAAAGPYATVQRRVGRSHSVRAPAGADKNVNRSQSFAVRPRKKGPPPPPPKRSSSALASANLADEPVPDAEPEDGLLGVRAQCRRASDLAGSVDTGSAGSVKSIAAMLELSSIGGGGRAARRPPEGHPTPRPASPEPGRVATVLASVKHKEAIGPGGEVVNRRRTLSGPVTGLLATARRGPGESADPGPFVEDGTGRQRPRGPSKGEAGVEGPPLAKVEASATLKRRIRAKQNQQENVKFILTESDTVKRRPKAKEREAGPEPPPPLSVYHNGTGTVRRRPASEQAGPPELPPPPPPAEPPPTDLAHLPPLPPPEGEARKPAKPPVSPKPVLTQPVPKLQGSPTPTSKKVPLPGPGSPEVKRAHGTPPPVSPKPPPPPTAPKPVKAVAGLPSGSAGPSPAPSPARQPPAALAKPPGTPPSLGASPAKPPSPGAPALHVPAKPPRAAAAAAAAAAAPPAPPEGASPGDSARQKLEETSACLAAALQAVEEKIRQEDAQGPRDSAAEKSTGSILDDIGSMFDDLADQLDAMLE

Variants of: B1
Settings: with tiam1_human TIAM1, Q13009
Sequence of tiam1_human TIAM1, Q13009 (Q13009 whole entry): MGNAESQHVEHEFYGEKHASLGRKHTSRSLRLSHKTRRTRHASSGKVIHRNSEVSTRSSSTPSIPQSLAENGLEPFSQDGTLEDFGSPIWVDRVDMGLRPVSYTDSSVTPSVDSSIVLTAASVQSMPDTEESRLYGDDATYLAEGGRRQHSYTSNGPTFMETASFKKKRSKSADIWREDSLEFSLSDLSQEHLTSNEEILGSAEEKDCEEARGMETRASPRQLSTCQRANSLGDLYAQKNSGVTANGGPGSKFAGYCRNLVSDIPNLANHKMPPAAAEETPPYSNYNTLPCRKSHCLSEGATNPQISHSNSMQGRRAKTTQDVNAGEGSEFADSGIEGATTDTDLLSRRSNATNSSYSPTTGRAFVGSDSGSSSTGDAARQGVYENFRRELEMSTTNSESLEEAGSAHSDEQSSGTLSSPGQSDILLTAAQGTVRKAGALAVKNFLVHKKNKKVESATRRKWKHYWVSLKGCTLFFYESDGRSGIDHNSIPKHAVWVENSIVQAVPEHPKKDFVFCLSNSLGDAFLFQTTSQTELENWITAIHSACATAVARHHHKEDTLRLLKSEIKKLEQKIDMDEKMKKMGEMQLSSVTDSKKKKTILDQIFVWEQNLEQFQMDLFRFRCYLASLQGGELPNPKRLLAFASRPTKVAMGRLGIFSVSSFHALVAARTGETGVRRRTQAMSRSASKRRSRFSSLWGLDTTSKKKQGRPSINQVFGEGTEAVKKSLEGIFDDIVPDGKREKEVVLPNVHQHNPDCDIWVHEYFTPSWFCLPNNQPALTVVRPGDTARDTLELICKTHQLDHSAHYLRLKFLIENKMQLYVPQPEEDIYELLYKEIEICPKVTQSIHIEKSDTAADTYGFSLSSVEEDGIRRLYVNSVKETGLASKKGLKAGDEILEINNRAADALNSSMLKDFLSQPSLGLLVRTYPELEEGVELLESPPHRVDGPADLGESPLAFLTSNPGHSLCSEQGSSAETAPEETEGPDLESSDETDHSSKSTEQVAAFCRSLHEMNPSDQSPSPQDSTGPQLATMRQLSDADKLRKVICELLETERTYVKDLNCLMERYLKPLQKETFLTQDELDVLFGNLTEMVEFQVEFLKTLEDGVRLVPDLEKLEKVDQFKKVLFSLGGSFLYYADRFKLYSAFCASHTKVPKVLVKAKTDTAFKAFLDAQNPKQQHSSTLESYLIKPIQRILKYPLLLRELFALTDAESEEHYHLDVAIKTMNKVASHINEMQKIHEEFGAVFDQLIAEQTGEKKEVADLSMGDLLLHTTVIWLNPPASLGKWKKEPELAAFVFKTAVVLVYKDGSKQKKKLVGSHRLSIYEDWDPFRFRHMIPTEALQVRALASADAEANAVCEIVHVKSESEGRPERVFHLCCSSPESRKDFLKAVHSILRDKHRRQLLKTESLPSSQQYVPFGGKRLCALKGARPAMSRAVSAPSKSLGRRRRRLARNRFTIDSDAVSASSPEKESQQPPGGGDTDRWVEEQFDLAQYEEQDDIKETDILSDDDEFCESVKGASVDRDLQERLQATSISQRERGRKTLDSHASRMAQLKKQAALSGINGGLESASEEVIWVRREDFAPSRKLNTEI

Variant | effect of a mutation on the interaction
V117Q | disrupting interaction
V117D | disrupting interaction

Variants of: B1
Settings: with cski1_human CASKIN1, Q8WXD9

Variant | effect of a mutation on the interaction
V117Q | disrupting interaction
V117D | disrupting interaction

Variants of: B2
Settings: with apba1_human APBA1, Q02410

Variant | effect of a mutation on the interaction
V117Q | disrupting interaction
V117D | disrupting interaction

Variants of: B3
Settings: with cskp_human CASK

Variant | effect of a mutation on the interaction
L378A;R379A;K380A | disrupting interaction
I375A;W376A;V377A | disrupting interaction

Variants of: B3
Settings: with cskp_human CASK, O14936

Variant | effect of a mutation on the interaction
R379A | decreasing interaction
W376A | disrupting interaction

Continued, values first:

effect of a mutation on the interaction | Variant
disrupting interaction | I375A
decreasing interaction | V377A
